From publication PMC12354661

Experiments:
[1] = biological target: T1, C-type lectin-like molecule-1 (CLL-1), immobilized on magnetic beads or SPR chip (UniProt Q5QGZ9); assay: flow cytometry (bead binding); details: Flow cytometry: 100 nM FAM-aptamer, 10 uL MB-CLL-1 in 200 uL DPBS, room temperature, 30 min, 150 rpm, 3 DPBS washes, SPR buffer and temperature not stated
T1 sequence: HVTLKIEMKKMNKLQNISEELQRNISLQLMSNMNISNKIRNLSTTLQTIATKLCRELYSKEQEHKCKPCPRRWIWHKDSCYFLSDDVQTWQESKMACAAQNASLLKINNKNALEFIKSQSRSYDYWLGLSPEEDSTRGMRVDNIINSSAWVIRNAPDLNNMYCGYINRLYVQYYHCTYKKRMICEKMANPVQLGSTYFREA

[2] = biological target: T1, C-type lectin-like molecule-1 (CLL-1), immobilized on magnetic beads or SPR chip; assay: SPR; details: aptamer 0.000244-0.0625 uM, Flow cytometry: 100 nM FAM-aptamer, 10 uL MB-CLL-1 in 200 uL DPBS, room temperature, 30 min, 150 rpm, 3 DPBS washes, SPR buffer and temperature not stated

## AACACTGGGGGCTGCTCGGGATTGTCGGACGTGGTG [Aptamer-4 (Apt-4)]
[1]; 100 nM aptamer
  binding signal (% FITC-positive beads): 2.84

## ATTACCAGGGACCGAAGGCAAAACTATGATCGGTGG [Aptamer-2 (Apt-2)]
[2]
  Kd: 15.5 nM
[1]; 100 nM aptamer
  binding signal (% FITC-positive beads): 94.3
[1]; 100 nM aptamer, specificity experiment
  binding signal (% FITC-positive beads): 100

## CACGAACCGGGGAGGGCGGGCGGGTTGGTGTCGTGC [Aptamer-3 (Apt-3)]
[1]
  binding signal (% FITC-positive beads): 1.23

## TCGCGAAGGGTGGGGACTGCTCGGGATTGCGGATGC [Aptamer-1 (Apt-1)]
[1]; 100 nM aptamer, text gives 3.28
  binding signal (% FITC-positive beads): 3.26
